From US6284879A, “Transport associated protein splice variants” (The General Hospital Corporation, priority 1998, dated 2001)
Entries after “also recorded” stand apart in the source; their conditions may differ.

Columns and labels:
[1] = molecular target: T1, TAP1/TAP2iso heterodimer (Homo sapiens, UniProt Q03518+Q03519); test: competition with transport of 125I-Peptide RRYQNSTEL in TAP1/TAP2iso transfectants; format: cell-based; conditions: unlabeled competitor peptide; comparison in words
T1 construct: expressed in transfected cells
T1 sequence (Q03519 1-653 isoform Q03519-2 L359K/V379I): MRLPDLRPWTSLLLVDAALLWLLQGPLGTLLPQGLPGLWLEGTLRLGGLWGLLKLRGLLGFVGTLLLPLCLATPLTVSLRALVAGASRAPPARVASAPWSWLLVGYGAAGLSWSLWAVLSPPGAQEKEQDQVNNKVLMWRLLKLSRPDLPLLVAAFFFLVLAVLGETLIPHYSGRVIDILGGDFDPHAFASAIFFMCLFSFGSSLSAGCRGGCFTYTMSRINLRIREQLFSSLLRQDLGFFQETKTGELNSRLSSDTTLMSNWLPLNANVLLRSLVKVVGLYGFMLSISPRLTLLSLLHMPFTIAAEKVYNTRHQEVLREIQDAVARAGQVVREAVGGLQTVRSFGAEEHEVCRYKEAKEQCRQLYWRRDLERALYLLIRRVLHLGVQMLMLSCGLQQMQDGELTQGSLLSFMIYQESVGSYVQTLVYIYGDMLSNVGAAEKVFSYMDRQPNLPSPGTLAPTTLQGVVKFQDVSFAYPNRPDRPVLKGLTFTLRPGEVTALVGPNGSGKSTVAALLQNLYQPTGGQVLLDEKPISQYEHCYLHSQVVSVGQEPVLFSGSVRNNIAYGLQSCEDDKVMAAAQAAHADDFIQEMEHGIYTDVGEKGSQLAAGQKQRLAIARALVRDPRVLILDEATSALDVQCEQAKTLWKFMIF
T1 sequence (Q03518 1-748): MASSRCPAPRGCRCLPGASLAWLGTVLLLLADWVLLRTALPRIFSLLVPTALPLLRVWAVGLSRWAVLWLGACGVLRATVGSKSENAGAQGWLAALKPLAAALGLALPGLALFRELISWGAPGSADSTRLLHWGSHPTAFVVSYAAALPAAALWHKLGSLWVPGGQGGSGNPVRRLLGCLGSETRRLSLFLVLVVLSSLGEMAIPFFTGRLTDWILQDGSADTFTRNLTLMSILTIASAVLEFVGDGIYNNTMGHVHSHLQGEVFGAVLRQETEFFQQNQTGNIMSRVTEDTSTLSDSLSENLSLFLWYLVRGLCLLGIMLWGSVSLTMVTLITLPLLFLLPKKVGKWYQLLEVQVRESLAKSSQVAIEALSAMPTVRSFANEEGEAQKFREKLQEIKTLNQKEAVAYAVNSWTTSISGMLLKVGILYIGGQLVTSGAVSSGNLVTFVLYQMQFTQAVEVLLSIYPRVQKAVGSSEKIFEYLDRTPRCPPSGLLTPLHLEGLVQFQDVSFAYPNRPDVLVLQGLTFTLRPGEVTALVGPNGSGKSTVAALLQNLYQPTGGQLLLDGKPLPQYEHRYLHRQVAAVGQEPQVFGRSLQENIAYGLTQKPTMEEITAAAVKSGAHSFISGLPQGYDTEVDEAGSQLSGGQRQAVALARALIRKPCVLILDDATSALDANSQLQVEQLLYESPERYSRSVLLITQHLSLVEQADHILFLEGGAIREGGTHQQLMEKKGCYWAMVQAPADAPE
Protocol: (§1) Glycosylated ^125 I Peptide […] (SEQ ID NO: 6), Peptide […] (SEQ ID NO: 7), or Peptide […] (SEQ ID NO: 8) was recovered and measured. The peptide translocation assay was performed essentially as previously described (Neefjes et al., Science, 261:769 (1993); and Momburg et al., J. Exp. Med., 179:1613 (1994)). Briefly, 2.5-5.0×10^6 T2 cell (transfected or untransfected) were washed once with incubation buffer (130 mM KCl, 10 mM NaCl, 1 mM CaC2, 2 mM EDTA, 2 mM MgCl2, 5 mM Hepes, pH 7.3) and permeabilized for 10 minutes at 37° C. with streptolysin O (2 IU/ml) (Wellcome, Beckenham, UK) in 50 μl of incubation buffer. After further addition of 10 μl of 100 mM adenosine triphosphate, 10 μl of ^125 I-labeled peptide (~15 pM), and 30 μl of incubation buffer, cells were incubated for an additional 10 minutes at 37° C. Transport was terminated by the addition of 1 ml of 1% NP-40 detergent, after which nuclei were removed by centrifugation and glycosylated peptides were recovered using concanavalin A-Sepharose (Sigma, St. Louis, Mo.) and quantitated with a gamma counter (LKB-Wallac).
Differential peptide selectivity of the TAP1/TAP2 and TAP1/TAP2iso heterodimers was further investigated by competition experiments with ^125 I-labeled Peptide […] (SEQ ID NO: 6) and various unlabeled peptides: Peptide […] (SEQ ID NO: 6); Peptide […] (SEQ ID NO: 7); Peptide […] (SEQ ID NO: 8); Peptide […] (SEQ ID NO: 9), the S1-24 fragment of human adrenocorticotropic hormone); and Peptide […] (SEQ ID NO: 10), residues 22 to 30 (human insulin B chain). The iodinated 9-mer Peptide […] was translocated in the presence of different concentrations of unlabeled competition peptides. The glycosylated peptides were recovered by Con A-Sepharose and quantitated. […] (self); (6B) competition of ^125 I-Peptide […] with Peptide […]; (6C) competition of ^125 I-Peptide […] with Peptide […]; and (6D) competition of ^125 I-Peptide […] with Peptide […]; and (6E) competition of ^125 I-Peptide […] with Peptide […].

[2] = test system: T1 cells (naturally co-express both TAP2 and TAP2iso); conditions: in words
[3] = test system: TAP1/TAP2iso heterodimer (compared with TAP1/TAP2); test: translocation of 125I-labeled peptides into the ER of permeabilized T2 transfectants; format: cell-based, human; conditions: 125I-labeled glycosylated peptide recovered from streptolysin O permeabilized T2 transfectants; comparison in words
Protocol: 10 mM stock solutions of peptides were prepared in dimethyl sulfoxide. Peptides (25 μg) were directly iodinated at unique tyrosine residues with the use of chloramine T (Sigma, St. Louis, Mo.), and free iodine was removed by gel filtration using Sephadex G 10 (Pharmacia) column chromatography.
as §1

[4] = molecular target: T2, TAP1/TAP2iso heterodimer (human); test: cell-based or functional assay
T2 chain 1: T1 sequence (Q03518 1-748)
T2 chain 2: T1 sequence (Q03519 1-653 isoform Q03519-2 L359K/V379I)

[5] = molecular target: T3, TAP1/TAP2 heterodimer (human); test: cell-based or functional assay
T3 chain 1: T1 sequence (Q03518 1-748)
T3 chain 2: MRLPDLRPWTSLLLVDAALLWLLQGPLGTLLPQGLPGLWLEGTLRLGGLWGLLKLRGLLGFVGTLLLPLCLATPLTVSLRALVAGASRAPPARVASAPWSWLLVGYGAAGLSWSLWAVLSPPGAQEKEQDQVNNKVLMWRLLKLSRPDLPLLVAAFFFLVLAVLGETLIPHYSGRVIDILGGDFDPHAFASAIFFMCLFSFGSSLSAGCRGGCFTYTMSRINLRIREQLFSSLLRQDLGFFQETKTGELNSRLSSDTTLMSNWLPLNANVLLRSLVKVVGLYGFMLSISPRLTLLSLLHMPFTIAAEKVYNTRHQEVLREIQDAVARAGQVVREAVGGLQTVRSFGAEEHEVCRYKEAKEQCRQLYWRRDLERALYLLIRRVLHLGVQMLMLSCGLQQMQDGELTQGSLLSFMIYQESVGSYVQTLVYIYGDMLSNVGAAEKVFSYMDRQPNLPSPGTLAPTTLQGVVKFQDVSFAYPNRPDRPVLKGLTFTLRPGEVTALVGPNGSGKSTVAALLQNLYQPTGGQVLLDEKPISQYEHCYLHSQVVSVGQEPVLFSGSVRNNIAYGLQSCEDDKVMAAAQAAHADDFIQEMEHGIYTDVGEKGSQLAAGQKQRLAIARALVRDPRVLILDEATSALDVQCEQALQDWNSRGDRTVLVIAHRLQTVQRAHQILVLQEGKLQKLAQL

[6] = test system: HLA class I (A2) on T2 cells; test: restoration of surface expression of HLA class I (A2) on transfected T2 cells, flow cytometry; format: cell-based, human; conditions: T2 cells transfected with the named cDNAs
Protocol: Plasmid DNAs were prepared using MAXI-PREP kits (Qiagen). TAP1- and TAP2-deficient T2 cells (donated by P. Cresswell, Howard Hughes Medical Institute, Yale University) (1-2×10^7 cells/ml) were transfected by electroporation with 10 μg of TAP1 and TAP2 or TAP2iso linear plasmid DNA in a 0.4-cm cuvette at 260 V and 960 μF. Subcloning and selection of transfectants were performed by culturing in the presence of hygromycin (250 μg/ml) or histidinol ([…]) for the PREP 4 and PREP8 vectors, respectively.
Immune complexes were detected with fluorescein isothiocyanate-conjugated goat anti-mouse IgG antibodies (Coulter, Hialeah, Fla.) and an Epics Elite flow cytometer (Coulter).
T2 cells were transfected with TAP1 cDNA in combination with TAP2 or TAPiso cDNAs as described above.

[7] = test system: HLA class I molecules in T2 cells; test: HLA class I maturation, endo H sensitivity, pulse-chase in transfected T2 cells; format: cell-based, human; conditions: expressed with TAP1 in T2 cells, relative to untransfected T2 cells
Text: A preferred method of measuring the rate at which MHC class I antigen complexes exit the ER is through the quantification of MHC class I proteins of the Golgi apparatus sensitive to endoglycosidase H (endo H). Glycosylation of MHC class I proteins in the Golgi apparatus results in an increase in their molecular mass and an increase in resistance of MHC class I-linked glycans to endo H. By [^35 S]methionine pulse-labeling TAP- or TAPiso-expressing cell cultures and chasing with unlabeled methionine at various times, the rate of MHC class I maturation in the ER can be gauged by observing differences in endo H sensitivity, e.g., compared with a TAP-deficient cell line such as T2.
High density cells (1×10^8 cells/ml) were labeled for 15 minutes in the presence of 500 μCi [^35 S]methionine (Amersham), and then chased at the indicated times in the presence of 10 mM unlabeled methionine.
Cells were lysed in an ice-cold lysis buffer, and lysates were incubated overnight at 4° C. with protein A Sepharose beads (Pharmacia) and normal rabbit serum (1:200 dilution). The beads were removed by centrifugation and the resulting supernatant was incubated for 12 hours at 4° C. with protein A beads and monoclonal antibody W6/32 (American Type Culture Collection (ATCC) accession no. HB 95), which recognizes HLA class I molecules. […]

IYLGPFSPNVTL [Peptide IYLGPFSPNVTL]
inhibition of transport of 125I-Peptide RRYQNSTEL, TAP1/TAP2iso compared with TAP1/TAP2 transfectants [1]: markedly greater extent in TAP1/TAP2iso transfectants | transportation of test peptides (relative IC50) [2]: equal efficiency | amount of translocated peptide, TAP1/TAP2iso compared with TAP1/TAP2 [3]: transported to a greater extent by TAP/TAP2iso; also recorded: four times more efficiently by the TAP1/TAP2iso heterodimer

RGFFYTPKA [Peptide RGFFYTPKA, residues 22 to 30 (human insulin B chain)]
inhibition of transport of 125I-Peptide RRYQNSTEL, TAP1/TAP2iso compared with TAP1/TAP2 transfectants [1]: in TAP1/TAP2iso to a greater extent

TVDNKTRYE [Peptide TVDNKTRYE]
inhibition of transport of 125I-Peptide RRYQNSTEL, TAP1/TAP2iso compared with TAP1/TAP2 transfectants [1]: markedly greater extent in TAP1/TAP2 transfectants | transportation of test peptides (relative IC50) [2]: equal efficiency | amount of translocated peptide, TAP1/TAP2iso compared with TAP1/TAP2 [3]: transported to a greater extent by TAP1/TAP2; also recorded: transported more efficiently in the TAP1/TAP2 transfectant

B1: Peptide RGFFYTPKA (peptide)
peptide: RGFFYTPKA
IC50 of inhibition of transport of 125I-labeled Peptide … [4]: 110 nM | IC50 of inhibition of transport of 125I-labeled Peptide … [5]: 300 nM

B2: TAP2iso: TAP2 splice variant lacking exon 11 and containing exon 12; 653 amino acids (protein)
chain: T1 sequence (Q03519 1-653 isoform Q03519-2 L359K/V379I)
surface expression of HLA/MHC class I ([6]; in words): no effect | HLA class I maturation as reflected in decreasing endo H sensitivity [7]: increasing HLA class I maturation

B3: unlabeled Peptide RRYQNSTEL (peptide)
peptide: RRYQNSTEL
IC50 of inhibition of transport of 125I-labeled Peptide … [4]: ~150 nM | IC50 of inhibition of transport of 125I-labeled Peptide … [5]: ~150 nM

B4: TAP2: previously known TAP2 subunit (clone 0121, TAP2 F allele) (protein)
chain: T3 chain 2
Mean fluorescence of HLA class 1 (A2) Mean ± SD ([6]; four separate experiments, at least three stable clones): 6.11 ± 1.09 | HLA class I maturation as reflected in decreasing endo H sensitivity [7]: increasing HLA class I maturation
